According to US20120282269A1 (Boehringer Ingelheim, published 2012):
Residue numbers refer to the chain shown, from its start. Values joined by “and” are separate entries in the source; they are usually repeats but may differ in a detail not shown here. Identical values can stand only once.

Assays:
recombinant human IL-23 = target: T1, recombinant human IL-23 (human, UniProt P29460 23-328); assay: cell-based or functional assay
T1 sequence 1: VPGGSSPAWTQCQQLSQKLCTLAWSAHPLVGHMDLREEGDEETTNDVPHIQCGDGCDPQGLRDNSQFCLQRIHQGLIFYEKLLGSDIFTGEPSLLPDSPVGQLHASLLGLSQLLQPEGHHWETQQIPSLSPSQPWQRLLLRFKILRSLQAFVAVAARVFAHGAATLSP
T1 sequence 2: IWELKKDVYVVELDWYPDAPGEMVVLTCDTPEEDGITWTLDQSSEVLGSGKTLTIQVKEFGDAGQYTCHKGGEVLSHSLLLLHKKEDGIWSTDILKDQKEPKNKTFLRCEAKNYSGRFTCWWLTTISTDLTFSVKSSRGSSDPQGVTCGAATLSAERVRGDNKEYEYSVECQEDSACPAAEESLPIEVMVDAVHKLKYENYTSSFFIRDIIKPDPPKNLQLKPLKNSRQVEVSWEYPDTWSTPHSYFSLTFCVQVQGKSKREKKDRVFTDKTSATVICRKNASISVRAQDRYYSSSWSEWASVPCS

[1] = target: T2, natural human IL-23 from activated THP-1 cells (human, UniProt P29460 23-328); assay: cell-based or functional assay
T2 sequence 1: T1 sequence 1
T2 sequence 2: T1 sequence 2

B1: 73H10 (antibody, V domains shown)
VH: EVQLQQSGPELVKPGASVKMSCKASGYTFTRYVMHWVKQKPGQGLEWIGYINPYNDVTKYNEKFKGKATLTSDRSSSTAYMKLSSLTSEDSAVYYCARNWDVPYWGQGTLITVSA
VL: DIQMTQSPVFLSASVGETVTITCRASENIDSYLAWYQQKQGKSPQLLVFAARNLADGVPSRFSGSGSGTQYSLKINRMQSEDVARYYCQHYYSTPFTFGSGTKLEIE
IC50, inhibition of IL-17 production from IL-23 stimulated mouse splenocytes (recombinant human IL-23): 1.41 nM

B2: 74H3 (antibody, V domains shown)
VH: B1 VH with V33L, V57G, K63R, R74K, K82E, I111V
VL: DIQMTQSPASLSASVGETVIFTCRASENIDSYLAWYQQKQGKSPQLLVYAATNLADGVPSRFSGSGSGTQYSLKINSLQSEDVARYYCLHYYSTPFTFGSGTELEIK
IC50, inhibition of IL-17 production from IL-23 stimulated mouse splenocytes (recombinant human IL-23): 1.35 nM

B3: 15C11 (antibody, V domains shown)
VH: EVQLQQSGPVLVKPGASVKMSCKASGYTFTDYYMNWVKQSHGKSLEWIGVIIPYNGGTSYNQKFKGKATLTVDKSSSTAYMELNSLTSEDSAVYYCARDGHRWYFDVWGTGTTVTVSS
VL: DVVMTQTPLSLPVSLGDQASISCRSSQSLVHSNGNTYLHWYLQKPGQSPKLLIYKVSNRFSGVPDRFSGSGSGTDFTLKINRVEAEDLGVYFCSQSTHVPYTFGGGTQLEIK
IC50, inhibition of IL-17 production from IL-23 stimulated mouse splenocytes [1]: 0.232 nM | IC50, inhibition of IL-17 production from IL-23 stimulated mouse splenocytes (recombinant human IL-23): 0.126 nM

B4: 43F5 (antibody, V domains shown)
VH: EVQLQQSGPELVKPGASVKISCRASGYSFTGYYMNWVKQSPEKSLEWIGEIIPTTGGTSYNQKFKAKATLTVDKSSSTAYMQLKSLTSEDSAVYYCARESGGFYWYFDVWGTGTTVTVSS
VL: B3 VL with T7S, Q43L, N81S, Q108K
IC50, inhibition of IL-17 production from IL-23 stimulated mouse splenocytes [1]: 8 nM

B5: 34G3 (antibody, V domains shown)
VH: EFQLQQSGPELVKPGASVKISCKASGYSFTDYNMNWVKQSKGKSLEWIGVIIPNYGFTSYNQNFKGKATLTVDQSSSTAHMQLNSVTSEDSAVYYCVRDGGILLWYLDVWGTGTTVTVSS
VL: B3 VL with N81S, Q108K, K112N
IC50, inhibition of IL-17 production from IL-23 stimulated mouse splenocytes [1]: 0.027 nM and 0.025 nM | IC50, inhibition of IL-17 production from IL-23 stimulated mouse splenocytes (recombinant human IL-23): 0.336 nM

B6: 34D9 (antibody, V domains shown)
VH: EVQLQQSGPELVKPGASVKIPCKASGYTFTDYNMDWVKKSHGKSLEWIGDINPHNGGTIYNQKFKGKATLTVDKSSSTAHMELRSLTSEDTAVYYCARNYYGSSYGWYFDVWGTGTTVTVSS
VL: DIMMTQSHKFMSTSVGDRVSITCKASQDVGNAVVWYQQKPGQSPKLLIYWASTRHIGVPDRFTGSGSGTDFTLTITNVQSEDLADYFCQQYSSYLTFGAGTKLELK
IC50, inhibition of IL-17 production from IL-23 stimulated mouse splenocytes [1]: 0.456 nM | IC50, inhibition of IL-17 production from IL-23 stimulated mouse splenocytes (recombinant human IL-23): 0.51 nM

B7: Mouse antibody 6B8 (antibody, V domains shown)
VH: QVQLQQSDAELVKPGTSVKTSCKISGNTFTDQTIHWMKQRPEQGLEWIGYIYPRDDSPKYNENFKGKATLTADKSSSTAYMQLNSLTSEDSAVYFCAIPDRSGYAWFIYWGQGTLVTVSS
VL: DIVMTQSHKFLSTSVGDRVTITCKASRDVAIAVAWYQQKPGQSPKLLLFWASTRHTGVPDRFTGSGSRTDFTLTISNVQSEDLADYFCHQYSSYPFTFGSGTKLEIK
IC50, inhibition of IL-17 production from IL-23 stimulated mouse splenocytes (recombinant human IL-23): 0.013 nM

B8: 18C4 (antibody, V domains shown)
VH: EVQLQQSGPEVVKPGASVKMSCKASGYTFTSSVIHWVKQKAGQGLEWIGYINPYNDGTKYNEKFKGKATLTSDRSSSTAYMELSSLTSEDSAVYYCTRRLDEAYWGQGTLVTVSA
VL: DIVMTQSPATLSVTPGDRVSLSCRASQSISEYLHWYQQKSHESPRLLIKYASQSISGIPSRFSGSGSGSDFTLSINSVEPEDVGVYYCQNGHSFPFTFGSGTKLEIK
IC50, inhibition of IL-17 production from IL-23 stimulated mouse splenocytes (recombinant human IL-23): 0.471 nM

B9: 24A5 (antibody, V domains shown)
VH: B8 VH with V11L, S31T, V33I, I34M, A41P, N55D, G57V, R74K, T97V, L100W
VL: B8 VL with D17N, E31D, D70N
IC50, inhibition of IL-17 production from IL-23 stimulated mouse splenocytes [1]: 0.085 nM and 0.031 nM | IC50, inhibition of IL-17 production from IL-23 stimulated mouse splenocytes (recombinant human IL-23): 0.022 nM and 0.037 nM

B10: Chimeric 24A5 (antibody, V domains shown)
VH: B8 VH with V11L, S31T, V33I, I34M, A41P, N55D, G57V, R74K, T97V, L100W
VL: B8 VL with D17N, E31D, D70N
IC50, inhibition of IL-17 production from IL-23 stimulated mouse splenocytes [1]: 0.095 nM and 0.102 nM | IC50, inhibition of IL-17 production from IL-23 stimulated mouse splenocytes (recombinant human IL-23): 0.404 nM

B11: 18E5 (antibody, V domains shown)
VH: EVQLQQSGPELVKPGAAVKMSCKASGYTFTRYLIHWVKQKPGQGLEWIGYINPYNDGTKYNEKFKGKATLTSDKSSSTAYMELSSLTSEDSAVYYCTSNWDLDYWGQGTTLTVSS
VL: B8 VL with E31D, H34Y, Y50F, S63T, N76D, E81D, Y86F, Y87F, S100G
IC50, inhibition of IL-17 production from IL-23 stimulated mouse splenocytes [1]: 0.009 nM and 0.013 nM

B12: 31H9 (antibody, V domains shown)
VH: B11 VH with A17S, I34M, K59N, T97S, S98L, L102Y, D103A, T110L, L111V, S115A
VL: B8 VL with E31D, F96Y, S100G
IC50, inhibition of IL-17 production from IL-23 stimulated mouse splenocytes [1]: 2 nM | IC50, inhibition of IL-17 production from IL-23 stimulated mouse splenocytes (recombinant human IL-23): 0.96 nM

B13: Chimeric 22E2 (antibody, V domains shown)
VH: B8 VH with V11L, V33I, K40R, A41P, N55D, G57V, R74K, T97A, L100W, A103S
VL: B8 VL with E31V, H41P
IC50, inhibition of IL-17 production from IL-23 stimulated mouse splenocytes (recombinant human IL-23): 0.1 nM

B14: 22E2 (antibody, V domains shown)
VH: B8 VH with V11L, V33I, K40R, A41P, N55D, G57V, R74K, T97A, L100W, A103S
VL: B8 VL with E31V, H41P
IC50, inhibition of IL-17 production from IL-23 stimulated mouse splenocytes (recombinant human IL-23): 0.061 nM and 0.13 nM

B15: 18D3 (antibody, V domains shown)
VH: B11 VH with A17S
VL: B8 VL with E31D, H34Y, Y50F, S63T, N76D, E81D, Y86F, Y87F, S100G
IC50, inhibition of IL-17 production from IL-23 stimulated mouse splenocytes (recombinant human IL-23): 0.234 nM

B16: 20E8 (antibody, V domains shown)
VH: B8 VH with V11L, I34M, K59Q, R74K, S75F
VL: B8 VL
IC50, inhibition of IL-17 production from IL-23 stimulated mouse splenocytes [1]: 0.438 nM and 0.561 nM

B17: 27G8 (antibody, V domains shown)
VH: QVQLQQSDAELVKPGASVKISCKVSGYTFTDHTIHWMKQRPEQGLEWIGYIYPRDGYPKFNEKFKGKATLTADKSSSTAYMQLNSLTSEDSAVYFCARRPPYYAMDYWGQGTSVAVSS
VL: DIVLTQSPASLAVSLGQRATISCRASKSVSTSGYSYIHWYQQKPGQPPKFLIYLASNLDSGVPARFSGSGSGTDFTLNIHPVEEEDAATYYCQHSRELPYTFGGGTKLEIK
IC50, inhibition of IL-17 production from IL-23 stimulated mouse splenocytes [1]: 5 nM | IC50, inhibition of IL-17 production from IL-23 stimulated mouse splenocytes (recombinant human IL-23): 0.235 nM

B18: 26F7 (antibody, V domains shown)
VH: EVQLQQSGPELVKPGASVKISCKASGYTFTDYYMNWVRQSHGESLEWIGDFNHNNDVITYNPKFKGKVTLTVEKSSTTAYMELRSLSSEDSAVYYCARGLRGYYAMDYWGQGTSVTVSS
VL: B17 VL with S30R, T31F, G33D, S35F, I37M, F50L, D59E, H94N
IC50, inhibition of IL-17 production from IL-23 stimulated mouse splenocytes (recombinant human IL-23): 0.027 nM

B19: 2D1 (antibody, V domains shown)
VH: QVQLKESGPGLVAPSQSLSITCTVSGFSLTTYAISWVRQSPGKGLEWLGVIWTGGGTKYNSALKSRLSISKDNSKSQVFLKMNSLQTDDTARYYCARKDYNYGGAMDYWGQGTSVTVSS
VL: DIVLTQSPGSLAVSLGQRATISCRTSESVYSYGQNFIHWYQQKPGQPPKLLIYRASNLESGIPARFSGSGSRTDFTLTMNPVEADDVATYYCQQTNEDPYTFGGGTKLEIR
IC50, inhibition of IL-17 production from IL-23 stimulated mouse splenocytes [1]: 2.34 nM and 1.91 nM and 1.6 nM

B20: 9D12 (antibody, V domains shown)
VH: B19 VH with G10V, T30N, T31N, Y32F, S40P, V50A, K58N, A96V, N101S
VL: DIALTQSPASLAVSLGQRATISCRASETINFYGTSFMHWYQQKPGQSPKLLIYRASNLESGIPARFSGSGSRTDFTLTINPVEADDVATYYCQQTNEDPYTFGGGTKLEIK
IC50, inhibition of IL-17 production from IL-23 stimulated mouse splenocytes [1]: 0.281 nM and 0.138 nM | IC50, inhibition of IL-17 production from IL-23 stimulated mouse splenocytes (recombinant human IL-23): 0.059 nM
